For data set [1], the target named is T1, SmD1s (Sm fold);SmD2;SmF;SmE;SmG;Gemin2ΔN39;SMNGe2BD (human;human;human;human;human;human;huma …, UniProt P62314;P62316;P62306;P62304;P62308;O14893;Q16637 …, del83-119|||||del1-39|). The data set can be described thus: GFC; 7SΔN; EMSA: 20 mM Tris-HCl pH 8.0, 250 mM NaCl, 2 mM MgCl2, 1 mM EDTA, 1 mM DTT, 37 C 40 min, RNA 50 pM and complex 2.5-10 pM as printed; GFC assembly assay conditions not in the material. The conditions noted are these: protein: recombinant;recombinant;recombinant;recombinant;recombinant;recombinant;recombinant; copies: 1;1;1;1;1;1;1; single-stranded. (In general: A gel shift assay detects complexes by their altered migration in electrophoresis.)

The target of data set [2] is T1, SmD1s (Sm …). Briefly: EMSA; 7SΔN; Sm subcore formed; EMSA: 20 mM Tris-HCl pH 8.0, 250 mM NaCl, 2 mM MgCl2, 1 mM EDTA, 1 mM DTT, 37 C 40 min, RNA 50 pM and complex 2.5-10 pM as printed; GFC assembly assay conditions not in the material. The conditions noted are these: protein: recombinant;recombinant;recombinant;recombinant;recombinant;recombinant;recombinant; copies: 1;1;1;1;1;1;1; 5' and 3' stem-loops flank the Sm site.

In data set [3] the target is T1, SmD1s (Sm …). The data set can be described thus: GFC/SDS-PAGE; 7SΔN; EMSA: 20 mM Tris-HCl pH 8.0, 250 mM NaCl, 2 mM MgCl2, 1 mM EDTA, 1 mM DTT, 37 C 40 min, RNA 50 pM and complex 2.5-10 pM as printed; GFC assembly assay conditions not in the material. The following applies: protein: recombinant;recombinant;recombinant;recombinant;recombinant;recombinant;recombinant, copies: 1;1;1;1;1;1;1.

The target of data set [4] is T2, SmD1s (Sm fold);SmD2;SmF;SmE;SmG;SmD3 (Sm fold);SmB (Sm fold) (human;human;human;human;human;human;huma …, UniProt P62314;P62316;P62306;P62304;P62308;P62318;P14678 …, del83-119||||||). Briefly: GFC/SDS-PAGE; 7SΔN + SmD3/B input; complete core, Gemin2ΔN39/SMNGe2BD released; EMSA: 20 mM Tris-HCl pH 8.0, 250 mM NaCl, 2 mM MgCl2, 1 mM EDTA, 1 mM DTT, 37 C 40 min, RNA 50 pM and complex 2.5-10 pM as printed; GFC assembly assay conditions not in the material. The conditions noted are these: protein: recombinant;recombinant;recombinant;recombinant;recombinant;recombinant;recombinant; copies: 1;1;1;1;1;1;1; stem-loops flank the Sm site.

Data set [5] concerns the target T2, SmD1s (Sm fold);SmD2;SmF;SmE;SmG;SmD3 …. Briefly: GFC/SDS-PAGE; 7SΔN + SmD3/B input; core formation to completion; EMSA: 20 mM Tris-HCl pH 8.0, 250 mM NaCl, 2 mM MgCl2, 1 mM EDTA, 1 mM DTT, 37 C 40 min, RNA 50 pM and complex 2.5-10 pM as printed; GFC assembly assay conditions not in the material. The following applies: protein: recombinant;recombinant;recombinant;recombinant;recombinant;recombinant;recombinant; copies: 1;1;1;1;1;1;1; stem-loops; 3 nt spacer 5' of Sm site.

Data set [6] has as its target T3, SmD1;SmD2;SmF;SmE;SmG (human;human;human;human;human, UniProt P62314;P62316;P62306;P62304;P62308 1-119;1-118;1-86;1-92;1-76, ||||). The data set can be described thus: GFC; 5Sm without Gemin2; EMSA: 20 mM Tris-HCl pH 8.0, 250 mM NaCl, 2 mM MgCl2, 1 mM EDTA, 1 mM DTT, 37 C 40 min, RNA 50 pM and complex 2.5-10 pM as printed; GFC assembly assay conditions not in the material. The conditions noted are these: protein: recombinant;recombinant;recombinant;recombinant;recombinant, copies: 1;1;1;1;1.

In data set [7] the target is T3, SmD1;SmD2;SmF;SmE;SmG. The data set can be described thus: GFC/SDS-PAGE; 5Sm without Gemin2; EMSA: 20 mM Tris-HCl pH 8.0, 250 mM NaCl, 2 mM MgCl2, 1 mM EDTA, 1 mM DTT, 37 C 40 min, RNA 50 pM and complex 2.5-10 pM as printed; GFC assembly assay conditions not in the material. The conditions noted are these: protein: recombinant;recombinant;recombinant;recombinant;recombinant; copies: 1;1;1;1;1.

Data set [8] addresses T1, SmD1s (Sm …). The data set can be described thus: GFC/SDS-PAGE; 7SΔN; Gemin2 starts to be released; EMSA: 20 mM Tris-HCl pH 8.0, 250 mM NaCl, 2 mM MgCl2, 1 mM EDTA, 1 mM DTT, 37 C 40 min, RNA 50 pM and complex 2.5-10 pM as printed; GFC assembly assay conditions not in the material. The conditions noted are these: protein: recombinant;recombinant;recombinant;recombinant;recombinant;recombinant;recombinant; copies: 1;1;1;1;1;1;1; 3' stem-loop.

In the case of GGCAAUUUUUGACAGUCUCUACGCUCUGAC (ssRNA) [U4-5'Δ-3'ss], the binding result with SmD1s (Sm …) [1] was “binds”.

B1: U4 (structured_RNA)
RNA: GGGAAUUGAAAACUUUUCCCAAUACCCCGCCGUGACGACUUGCAAUAUAGUCGGCACUGGCAAUUUUUGACAGUCUCUACGGAGACUG
Regarding B1, in the data set with SmD1s (Sm …) [2], the binding signal is roughly 2 fold vs 7S.

B2: U4ΔSm (structured_RNA)
RNA: GGGAAUUGAAAACUUUUCCCAAUACCCCGCCGUGACGACUUGCAAUAUAGUCGGCACUGGCAACCCCCGACAGUCUCUACGGAGACUG
As for B2, the binding result in the data set with SmD1s (Sm …) [3] (5' and 3' stem-loops) is reported as “no binding”.

B3: flU4 (structured_RNA)
RNA: GGGCAGCUUUGCGCAGUGGCAGUAUCGUAGCCAAUGAGGUCUAUCCGAGGCGCGAUUAUUGCUAAUUGAAAACUUUUCCCAAUACCCCGCCGUGACGACUUGCAAUAUAGUCGGCACUGGCAAUUUUUGACAGUCUCUACGGAGACUG
For the molecule B3, the binding result in data set [4] is “binds”.

B4: flU4-spacer (structured_RNA)
RNA: GGGCAGCUUUGCGCAGUGGCAGUAUCGUAGCCAAUGAGGUCUAUCCGAGGCGCGAUUAUUGCUAAUUGAAAACUUUUCCCAAUACCCCGCCGUGACGACUUGCAAUAUAGUCGGCACUCCGAAUUUUUGACAGUCUCUACGGAGACUG
Consider B4, for which, in data set [5], the binding result is reported as “binds”.

On to AAUUUUUGA (ssRNA) [9nt Sm site], for which the binding result with SmD1;SmD2;SmF;SmE;SmG [6] (single-stranded) is “binds”.

For the molecule GGGAAUUGAAAACUUUUCCCAAUACCCCAAUUUUUGA (ssRNA) [3'Sm], the figures for the binding result in the data set with SmD1;SmD2;SmF;SmE;SmG [7] and with SmD1s (Sm …) [3] were “binds” and “no binding”, respectively.

B5: U4-3'Δ (structured_RNA)
RNA: GGGAAUUGAAAACUUUUCCCAAUACCCCGCCGUGACGACUUGCAAUAUAGUCGGCACUGGCAAUUUUUGAC
Consider B5, for which the binding result with SmD1s (Sm …) [3] (5' stem-loop) is listed as “no binding”.

On to GGCAAUUUUUGACAGUCUCUACGGAGACUG (structured_RNA) [U4-5'Δ], for which the binding result with SmD1;SmD2;SmF;SmE;SmG [6] (3' stem-loop) is “binds”.

B6: U4-5'ss (structured_RNA)
RNA: GGGAAUUGAAAACUUUUCCCAAUACCCCAAUUUUUGACAGUCUCUACGGAGACUG
On to B6, for which the binding result with SmD1s (Sm …) [8] and with SmD1;SmD2;SmF;SmE;SmG [6] (3' stem-loop) was “binds” each time.
